# Experimental data from the DeepSol protein solubility set.
# Assay: soluble on expression in E. coli; label from the status in PepcDB or PDB records
row,Sequence,soluble on expression in E. coli
1,MIDLDSLEHIGVLGKPHGVQGECNARLTADLSTLFEEEERLFLFFELDALPVPFRLIGYREKTDDITLLRFAGIESKEEMEQYTGVSLFMERRYFDTDSIEFTWEHFIGFTVFDREGCFVGTIDDVDESTLNVLLSITTPEGKELLLPVAEDLLEEIDVPNRKLTMIIPDGLLQLLEHHHHHH,soluble
2,MGSDKIHHHHHHMIDLSLLPPPDVVESVDFEELYQETLGIFREFMKDQWTAALESDPVVKLMEVMAYREMLTRARVNAAAKASLLAFAKGNDLVNRAADYGVEKLVIRPADPDAVPPVEAVMEGDEALRYRTRLSLEALSVAGSSGAYEYHGLSASAELTNVSVDSPRFVEAELTPEVRAQLPAGAIVVVCDYDAGLANPLPGDVSLAILPSLSSTTPVAQLVAKVKAALSAEEVRPITDRPRVAAGVPTEFKVEAELQIEEGPDPDVVKATARAGLNAAIAEARRLQGQLPLSAIYAALHVTGIRSVTLKHPAAGVVCDKRHYPSCTSVTLTSKVVT,not soluble
3,MIIVHHLNNSRSQRILWLLEELGLPYEIKRYQRDPKTNLAPPELKAIHPLGKSPVIEDGPHVVIESGAIVDYLIRRHGDGRLQPDPASATYDEYVQWLHFAEGSAILPLMLNLYVGRLGDAGAPLHPRIHSELANYLGYLNEALGLTPYLLGDELSGADIQMSFIGEFAKMQGMLQPHPNLAAWVQRCQERPAYRQALEQGGEYSFAK,not soluble
4,MSLATEIVENMFCVNAPAGSGKTTKIKSMIVNHKIKHPIDNILCITYTKRAAEELNKDFNEEGIHISTIHSFLHKFLKIYFCKTEMKDLYFEMFEDLIKESIENKEEKEHIVTRNQKYIEKHGCLSVESIKANIDAIYYNESSNNHLYTGGLAHDSLLLFAEKVFDKFPKIKMRLTQKYQSIFIDEYQDSAASVLRMFYKACLNTKSNLYFLGDKMQQIYKNYDGSFEEELKTLNTDIKLDINHRSIPDIVSVLNNIYNDKGFKQNPSKKNLDIKPDHPPRIIMCDNIQERLKRECSIYPDALLLFLLNQQKFASIGARELYKQFSHLERYSHAKQLSATDVLSDNTSENTDPLLKLLFIVGEVVDYYKKSNVGSIIQIFKANRKLFDMGIGTITSHRDRIDLTKLLKQLYEDYHKEISISEFLTLLRGCNEGHHHHHH,not soluble
5,SNAMKYTVYLFDFDYTLADSSRGIVTCFRSVLERHGYTGITDDMIKRTIGKTLEESFSILTGITDADQLESFRQEYSKEADIYMNANTILFPDTLPTLTHLKKQGIRIGIISTKYRFRILSFLRNHMPDDWFDIIIGGEDVTHHKPDPEGLLLAIDRLKACPEEVLYIGDSTVDAGTAAAAGVSFTGVTSGMTTAQEFQAYPYDRIISTLGQLISVPEDKSGCPL,soluble
6,MSNKGGGQRSGEIGVDELWTVYKSFIRETGLARQHLDSFNRLVTQEIQKIIDSIREVRPQWRIYAGRRRYRRGRFEEHEIHLPDVKIVFGKARFKEPMAREVIESFDRRVTPFECRVRGITYSAPLMVEMTIVQDNMIEKTREVKIADFPVMVKSVLDPLSKYDEETVIEMGEDPGDPGGYFIINGSEKVIVAQEDLAVNRIIVNKSTAATARITHTAKAVSTVLGLRRQAIVDRMSDGTLEASLSRLRYRIPLVVLLRALGLEKDMEIMLAVSADPDVQREMLPSLEKGRALAPTKEDALKYLGNRIAPGQPLDVRIRRAEEFLDTQLLPHLGNRPEDRIKKAYFLAEMANRVLQLYLGKRGEDDKDFLGNKRLRLAGDLIAELFRESLEALANTMAQKLEEQLAERRQIRLDFLVRPTIISDRLKGAIATGNWGQDRTGISQQLDRTNWISLLSHLRRVISPLSRGQAHFEARDLHGSHWGRYCPFETPEGINCGLVKNLALSAYISVGVDESVVEEILVKDLGVAPLERILEEAKQAGEPPEIMLKGTKVFINGRPLGYHPNGAELARKIRELRRSDKLEVERPWEVSVYHLREGEIDELYVNTDSGRLMRPVVVVENGEPKLTREHVEKLSRGEITFWDLVKQGVVEMLDPEEEQNALIAELPWEVTKEHTHMELWVPAIVGVAAATIGYLEHNQSPRNTYQAAMAKQALGVYALNYRIRLDSHSYLLQYPQVPIVQTRMLDIMGYNERPAGQNMVVAIMSYTGYNIEDALIFNKGSIDMGLARAYFFRVYTGIENEYPGGERDRITLPKPDEVYDYRGAAAYAKLEADGIVAPETEVEGGEILIGRVSPPRFLGEGRVISMATVRRRDTSIPMRLGEKGVVDMVVISTTVERNKLVKVRVRNLRIPEIGDKFASRHGQKGVIGMIFPRYDMPYTEEGIEPDVILNPHAIPSRMTVGQLLEEIAGKLGAIKGRFVDATPFFKEDIDGLRIELLKEGYDPNAREVMYDGRTGQIIEAPITIGVAYYQRLYHMVADKIHARATGRVHLLTRQPTEGKARQGGLRFGEMERDCLVGHGASMLLRDRMLDNSDAYVMYVCNTCGNIAWFNRRKKVLECPIHGEEGDIRPVKVPYAFKLLLQEITSMMIKPELKVADKISVIRKVVGDYT,soluble
7,MPPSLRKAVAAAIGGGAIAIASVLITGPSGNDGLEGVSYIPYKDIVGVWTVCHGHTGKDIMLGKTYTKAECKALLNKDLATVARQINPYIKVDIPETTRGALYSFVYNVGAGNFRTSTLLRKINQGDIKGACDQLRRWTYAGGKQWKGLMTRREIEREVCLWGQQ,not soluble
8,MSLTEPDSKPKKGRAGRKKAEPVRPPEQFLELAELLDYVGQVIARGVPGGVWVRAEIASLTDRRHLYLDLVQAGEGGAGGVGEVAKCRATVWARERFALEAKFRGATSGATLSAGLKVLLFGTAEFHPQYGFSFNVLDISPEYTLGDAALRLEAMRAELVAEGSYGLNRLLPVPTDFARVAVIAPREAAGLGDFRREADPLEAAGLVEFHYLEATFQGREAGASLLRAVAAARELHQEKALDALFVIRGGGAVTDLAWLNDLELARALATFPAPVVTGLGHARDDTLPDEVACLRTDTPSKAAAYLVRTVVNAAAQAQEAARTIRAEAARVLVEAEAAAAWARDRALSSAVRRVDAAAAEVDALMRQALGLTPQRTLARGYALVRDAAGQPVTRAAGARAGEPLTLEWSDGSVEGHHHHHH,soluble
9,ASAFSESEETFVRIVAQWAGKEISRRRNQKRANAERERLRQIIDTIPQQVFVKDADGTYTLANKAAAAAHGVAVERLEGATHDEFALSDEQRDFKSDDAAVIENGESVHIEEDGLVEADGSSHTVQTDIVPIEIAS,not soluble
10,MVAASEGNVVIEVDMANGWRGNASGSTSHSGITYSADGVTFAALGDGVGAVFDIARPTTLEDAVIAMVVNVSAEFKASEANLQIFAQLKEDWSKGEWDCLAASSELTADTDLTLTCTIDEDDDKFNQTARDVQVGIQAKGTPAGTITIKSVTITLAQEAYSANVDHLRDLAPSDFPIGVAVSNTDSATYNLLTNSREQAVVKKHFNHLTAGNIMKMSYMQPTEGNFNFTNADAFVDWATENNMTVHGHALVWHSDYQVPNFMKNWAGSAEDFLAALDTHITTIVDHYEAKGNLVSWDVVNAAIDDNSPANFRTTDSAFYVKSGNSSVYIERAFQTARAADPAVILYYNDYNIEQNNAKTTKMVDMVKDFQARSIPIDGVGFQMHVCMNYPSIANISAAMKKVVDLGLLVKITELDVAVNQPHCDAYPANKINPLTEAAQLAQKKRYCDVVKAYLDTVPVNQRGGISVWGTTDANTWLDGLYREQFEDEKISWPLLFDNNYNDKPALRGFADALIGTQCTNTHELHHHHHH,soluble
11,MGSDKIHHHHHHMTYINAQGRLKGCKPIAVIDIGSNSVRLVIYEGLVRSPTVLFNEKILCGLGQGVAKTGLLEENSMNMALRTLKRFRALCLQIGADEIYILATAAAREAKNGLAFIQNAENILQNKIYLLSGSEEAVYSAYGVISTFYQPKGISGDLGGGSLELIDIDNSEVGEGITLPLGGLRLQYMSNNDIAVAAKIAQEQFGKSAVVHKSMARCFYAVGGTWRNLAKLHMATKHYRLPVMHGYEVDAVEMEDFLRFVVNGSIENMKGISAVSKNRRQLLSYGAIILIELIRCVGFEKIIFSGAGVREGFLYSRLPQEVRVSDPLIAACTEMAILRARSPKQAEELIDFTTNAFEVFGILETENECRYRKAACLLADIGWRIHPDYRGNEAANQIALGSYPGISHEGRAYAALAVFFRNTGSLIGEESLPIFQLASKDVIEKARILGEIMRIAHLFSASTTGVLPHLSWHKKIDHVVLHIPARYADLLGERPLSRLKKLSKIIELPLAFEIF,not soluble
12,MAEDEPDAKSPKTGGRAPPGGAEAGEPTTLLQRLRGTISKAVQNKVEGILQDVQKFSDNDKLYLYLQLPSGPTTGDKSSEPSTLSNEEYMYAYRWIRNHLEEHTDTCLPKQSVYDAYRKYCESLACCRPLSTANFGKIIREIFPDIKARRLGGRGQSKYCYSGIRRKTLVSMPPLPGLDLKGSESPEMGPEVTPAPRDELVEAACALTCDWAERILKRSFSSIVEVARFLLQQHLISARSAHAHVLKAMGLAEEDEHAPRERSSKPKNGLENPEGGAHKKPERLAQPPKDLEARTGAGPLARGERKKSVVESSAPGANNLQVNALVARLPLLLPRAPRSLIPPIPVSPPILAPRLSSGALKVATLPLSSRAGAPPAAVPIINMILPTVPALPGPGPGPGRAPPGGLTQPRGTENREVGIGGDQGPHDKGVKRTAEVPVSEASGQAPPAKAAKQDIEDTASDAKRKRGRPRKKSGGSGERNSTPLKSAAAMESAQSSRLPWETWGSGGEGNSAGGAERPGPMGEAEKGAVLAQGQGDGTVSKGGRGPGSQHTKEAEDKIPLVPSKVSVIKGSRSQKEAFPLAKGEVDTAPQGNKDLKEHVLQSSLSQEHKDPKATPP,soluble
13,MRFKAELMNAPEMRRALYRIAHEIVEANKGTEGLALVGIHTRGIPLAHRIARFIAEFEGKEVPVGVLDITLYRDDLTEIGYRPQVRETRIPFDLTGKAIVLVDDVLYTGRTARAALDALIDLGRPRRIYLAVLVDRGHRELPIRADFVGKNVPTSRSEVVKVKVEEVDGEDRVELWEREGA,soluble
14,MGSDKIHHHHHHMLIFQYDFKIEFYNTVNSKNSIGGRLSGLRPRVVITTQNGAPDLNIFIQNTYSENNLITSKKAKLQIFNVPLDFSDFKTADIVKIYYKKFSDQQDYQFIMAGYLGAPVERIGGAENFSFECELYLLSRATFLERKFEYKNFKGSTIADAINYAFKDKAIFFMNELEKTKVIKESFACNSPKGLIEYLRRQGYVDAVIVDIGNPGQDVDLKFIFMNFEQFGAAEYKRLEDYGLLFVPQKDALGFKSGLSLYQAQVMFTHNIKIADNLSFKDRHGNTLDCKVKNTSARLSSTRECVLNLELYSKGEMYYAK,not soluble
15,MSLKKLTVAALAVTTLLSGSAFAHEAGEFFMRAGSATVRPTEGAGGTLGSLGGFSVTNNTQLGLTFTYMATDNIGVELLAATPFRHKIGTRATGDIATVHHLPPTLMAQWYFGDASSKFRPYVGAGINYTTFFDNGFNDHGKEAGLSDLSLKDSWGAAGQVGVDYLINRDWLVNMSVWYMDIDTTANYKLGGAQQHDSVRLDPWVFMFSAGYRFEGGSHHHHHH,soluble
16,MKHTLPDLPFDYADLEPVISHEIMQLHHQKHHATYVNNLNQIEEKLHEAVSKGNLKEAIALQPALKFNGGGHINHSIFWTNLAKDGGEPSKELMDTIKRDFGSLDNLQKRLSDITIAVQGSGWGWLGYCKKDKILKIATCANQDPLEGMVPLFGIDVWEHAYYLQYKNVRPDYVHAIWKIANWKNISERFANARQ,soluble
17,MPQFETHRLVKHSPDRMYDLVADVEKYPQFLPLCEALSVRSRKERDGKVLLVADMTVGYKAIRETFTTQVLLNPAERAIDVKYIDGPFRYLDNRWRFEAAENGGTTIHFFIDYEFKNRLLGAVMGSMFDRAFRMFAEAFETRADKIYTDPALEHHHHHH,soluble
